From PMC3405907

How the values were obtained:
[1] = target: capsid shell protein (CSP) of cytoplasmic polyhedrosis virus (cytoplasmic polyhedrosis virus (CPV)); assay: cryo-EM structure
[2] = target: turret protein (TP) of cytoplasmic polyhedrosis virus (cytoplasmic polyhedrosis virus (CPV)); assay: cryo-EM structure

Row | Substance | stoichiometry N [1] | stoichiometry N [2]
1 | capsid shell protein (CSP) of cytoplasmic polyhedrosis virus (natural protein) | 120 | –
2 | turret protein (TP) of cytoplasmic polyhedrosis virus (enzyme) | – | 5
